Columns and labels:
[1] = system: liver of a WAG/Rji rat; conditions: 400 nmol/kg i.v., five minutes post injection, WAG/Rji rat bearing CC531 colon carcinoma
Procedure: The rats were orthopically injected with 1×10^6 syngenic colon carcinoma cells (CC531 cells) 10 days prior to the measurements. At the day of measurement the rats received the peptide in a concentration of 400 nmol/kg body weight. During the experiments the rats were anaesthetised by isoflurane and kept at 37° C.

[2] = Stability in the serum; assay type: in vitro ADME; conditions: 37° C., non-inactivated human serum from healthy donors, over the indicated period
Procedure: The detection of degradation products was conducted by purification of the peptides by using HPLC affinity chromatography and subsequent radioactivity determination was performed on a gamma counter at the indicated time points. The correct mass of the radioactive peak fractions eluted from the column was confirmed by mass spectrometry (data not shown).

CCCCCCCCCCCCCCCCCC(=O)N[C@@H](CCCCNC(=O)CN1CCN(CC(=O)O)CCN(CC(=O)O)CCN(CC(=O)O)CC1)C(=O)N[C@@H](CCCCNC(=O)CN1CCN(CC(=O)O)CCN(CC(=O)O)CCN(CC(=O)O)CC1)C(=O)N[C@@H](CCCCNC(=O)CN1CCN(CC(=O)O)CCN(CC(=O)O)CCN(CC(=O)O)CC1)C(=O)N[C@@H](CC(N)=O)C(=O)N[C@@H](CC(C)C)C(=O)N[C@@H](CO)C(=O)N[C@H](C(=O)N[C@@H](CO)C(=O)N[C@@H](CC(N)=O)C(=O)N1CCC[C@H]1C(=O)N[C@@H](CC(C)C)C(=O)NCC(=O)N[C@@H](Cc1ccccc1)C(=O)N[C@@H](Cc1ccccc1)C(=O)N1CCC[C@H]1C(=O)N[C@@H](CC(=O)O)C(=O)N[C@@H](Cc1c[nH]cn1)C(=O)N[C@@H](CCC(N)=O)C(=O)N[C@@H](CC(C)C)C(=O)N[C@@H](CC(=O)O)C(=O)N1CCC[C@H]1C(N)=O)[C@@H](C)O
enrichment in the liver (PET image) [1]: Specific enrichment
degradation in non-inactivated human serum (HPLC, gamma counter) [2]: Only radioactive decay but no cleavage was observed

Reference: patent publication US10363323B2, “Hydrophobic modified peptides for liver specific diagnosis” (RUPRECHT-KARLS-UNIVERSITAT HEIDELBERG, priority 2011, dated 2019)
